# From US20120121633A1, “HIV CD4 BINDING SITE BASED COVALENT IMMUNOGEN COMPOSITIONS” (priority 2010, published 2012)
# Positions count from the first letter of the chain named.
# B1: 2G9: murine IgM MAb from KLH-E-416-433 immunization (antibody, V domains shown)
# VH: QVQLKQSGPGLVQPSQSLSITCTVSGFSLTSYGVHWVRQSPGKGLEWLGVIWSGGSTDYNAAFISRLSISKDNSKSQVFFKMNSLQANDTAIYYCARNKDYGSSYDYYAMDYWGQGTSVTVSS
# VL: DIQMTQTTSSLSASLGDRVTISCRASQDISNYLNWYQQKPDGTVKLLIYYTSRLHSGVPSRFSGSGSGTDYSLTISNLEQEDIATYFCQQGNTLPTFGGGTKLEIKRA
# B2: 4B2-F8: murine IgG MAb from KLH-E-416-433 immunization (antibody, V domains shown)
# VH: QVQLQQSGAELVRPGASVKLSCMALGYTFTDYEIHWVKQTPVHGLEWIGGFHPGSGGGAYSQKFKGKATLIADKSSSIAYMEVISLTSEDSAVYYCTRFRYSSFAMVYWGQGTSVTVSS
# VL: DIVMSQSPSSLAVSAGEKVTMSCKSSQSLLNSRTRKNYLAWYQQKPGQSPKLLIYWASTRESGVPDRFTGSGSGTDFTLTINSVQAEDLAVYYCKQSYNLWTFGGGTKLEIK
# B3: 9F3-A7: murine IgG MAb from KLH-E-416-433 immunization (antibody, V domains shown)
# VH: QVQLQQSGAELVRPGASVKLSCKALGYTFTDYEMHWVKQTPVHGLEWIGGIYPGSGGTAYNQKFKGKATLTADKSSSTAYMELSSLTSEDSAVYYCTKFRFSSFAMDYWGQGTSVTVSS
# VL: B2 VL with S22R, N82S, S97F
# Legend:
# [1] = tested on: subtype C clinical HIV isolate ZA009 (97ZA009); test: HIV neutralization, PBMC/clinical isolate assay, strain ZA009; assay type: cell-based; details: MAb clones from KLH-E-416-433 immunized mice
# Excerpt: FIG. 12. […] A, 416-433 and 301-324 epitope sequences from the autologous subtype B strain of IgA donor 2866 and heterologous subtype C strain ZA009 used for neutralization assays. […] Host cells, PBMCs; virus isolate, R5-dependent subtype C strain ZA009. IC50, 50% neutralization concentration. Dashed lines, 95% confidence limits. […] Pooled IgA (I19-21 donors 2857, 2866 and 2886) was fractionated on agarose-conjugated as in FIG. 8. […] Host cells, PBMCs; virus, strain ZA009.
# FIG. 19. […] Abs were fractionated by affinity chromatography on agarose-conjugated E-416-433. Plotted are the neutralization potencies (IC50) expressed per unit mass Ab content (sum of IgM, IgG and IgA measured by ELISA using class-specific Abs as in FIG. 8). IC50 computed from dose-response curves using the CCR5-dependent subtype C strain 97ZA009. […] Noncovalently and covalently bound fractions were recovered, respectively, by pH 2.7 elution and 2-PAM elution.
# Neutralization of clinical HIV isolates obtained from the NIH AIDS Reagent Repository is tested using phytohemagglutinin-activated human PBMCs pooled from 4-12 donors.^44 The virus is incubated with the test Ab sample in quadruplicate to ensure reliability. The reaction mixtures are added to PBMCs in 96-well plates. Infection is monitored using p24 enzyme-immunoassay kits. […] The stock HIV strain ZA009 is used to infect PBMC in the presence of the Ab. Infection proceeds overnight and cells are washed and resuspended in RPMI media containing the Ab. After 7 days the cell-free supernatant is harvested and used to infect a new aliquot of stimulated PBMCs (second passage). The virus is passaged 10 times with a gradual (2-fold) increase in Ab concentration with each passage. A virus aliquot is saved at each passage for sequencing.^112 Viral supernatants are titered at each passage using a fresh batch of PBMCs. The gp120 gene will sequenced following RT-PCR as described.^113
# [2] = target: BSA-E-416-433 (Human immunodeficiency virus type 1 group M subtype B, UniProt P04578, C418S/K429E); details: inhibited by gp120, Bt-E-416-433 and sCD4, not by Sh416-433 or ovalbumin
# Experimental: FIG. 21. […] IgM 2G9 binding to BSA-E-416-433 (70 ng/well) was tested in the absence or presence of increasing concentrations of Bt-E-416-433, sCD4, gp120, control Sh416-433 and control ovalbumin (OVA). Y-axis values are computed as follows 100x[A490 with competitor/A490 without competitor]. Methods as in ref 2.
Molecule,HIV neutralizing activity [1],specificity of binding shown by competitive inhibition [2]
B1,neutralizing activity,Specificity for 421-433 CD4BS sequence
B2,neutralizing activity,–
B3,neutralizing activity,–
